Laboratory results reported in patent publication US20110195911A1, “SYNTHETIC ANALOGS OF THE JUXTAMEMBRANE DOMAIN OF IGF1R AND USES THEREOF” (THE UNITED STATES OF AMERICA,AS REPRESENTED BY THE …, priority 2008, published 2011).
Where a SMILES comes first, the peptide text is derived from it. [ ]: non-standard residue; d: D form. The star is where a group is joined. Palmitoyl = CCCCCCCCCCCCCCCC(=O)*

Legend:
AKT kinase = assay: OMNIA fluorogenic AKT kinase activity assay in lysates of IGF-1-stimulated MCF-7 cells, FIG. 3; assay type: cell-based; conditions: MCF-7 stimulated with IGF-1, inhibitor 0 to 0.5 μM to 2.5 μM
Experimental: AKT Kinase Assay: OMNIA™ fluorogenic AKT Kinase Activity Assay Kit (BioSource through Invitrogen) was used for the measurement of AKT activity in cell lysates. To prepare for the cell treatment, MCF-7 cells were seeded into four wells on a six-well plate in RPMI medium. The medium was supplemented with 10% Fetal Bovine Serum to aid the cell attachment. The cells were incubated for 24 hours, after which time the 10% serum medium was aspirated and replaced with 2 mL of no-serum medium. The cells were starved overnight to stop the signaling from the FBS. On the third day, the medium was replaced and different dilutions of peptide diluted in no-serum medium was added to the four wells. Well 1 & 2 had 0.0 μM of 18, well 3 0.5 and well 4 2.5 μM.
The cells were placed on ice briefly to aid in detaching and then scraped from the bottom of the wells and rinsed with cold PBS. The cells suspended in PBS were collected and centrifuged for 5 minutes at 1500 rpm at 4° C. and the medium aspirated. […]
Master mix AKT fluorogenic substrate was prepared according to the protocol provided by BioSource. […] The fluorescence was excited at 360 nm and read at 485 nm for a length of 60 minutes every thirty seconds on a FLUOstar/POLARstar Galaxy (BMG Lab Technologies GmbH) microplate reader. […]

[1] = system: MCF-7 breast cancer cells; assay: MTT cell toxicity assay in MCF-7 breast cancer cells; assay type: cell-based; conditions: MCF-7 cells, MTT; for TGI: concentration of total growth inhibition (cytostatic); for growth inhibition / potency in MCF-7 cells (in words): comparison with related peptides
Outline: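 MCF-7 cells seeded in 1% FBS medium, grown 24 h, then exposed to compounds at 0.1, 0.5, 2.5 or 5.0 μM (final, 0.5% FBS) for 48 h. MTT absorbance at 544 nm; growth relative to time-zero and untreated controls gave GI50 (50% growth inhibition) and TGI (zero net growth).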

breast cancer cell lines = assay: Alternative potency assay (MTT, serum-free, IGF-1 added) in cancer cell lines, FIG. 1; assay type: cell-based; conditions: breast cancer cell lines (MCF-7, T47D), IGF-1 10 ng/mL
Experimental: An alternative potency assay was used to test compounds in MCF-7 (breast cancer), T47D (breast cancer), Colo 205 (colon cancer), JM-1 (rat hepatoma), Sk MeI-2 (melanoma), PLC (human hepatoma), and HepG2 (human hepatoma) cells. Cells were suspended at a concentration of approximately 5000 cells per 100 μL of suspension in a 5% FBS RPMI medium. The cells were seeded into 96-count wells and incubated over night. After one day's incubation, the 5% FBS medium was aspirated and replaced with 100 μL of no serum RPMI medium containing 1 mg Bovine Serum Albumin (BSA) per 1 mL RPMI. Various concentrations of the test compounds were prepared by dilution in no-serum medium containing 1 mg BSA/mL. […] Absorbance of the wells at 544 nm was determined by a FLUOstar/POLARstar Galaxy (BMG Lab Technologies GmbH) microplate reader. The activity was calculated from the data using the formula: 100×[(T−T0)/(C−T0)] for T>T0 and 100×[(T−T0)/T0] for T<T0, wherein T0 corresponds to cell density at the time of drug addition, “T” is the optical density of the test well after a 48-h period of exposure to test drug, and “C” is the control optical density. […]

[2] = target: Insulin-like growth factor 1 receptor (IGF1R) (UniProt P08069 31-1367, limits assumed); assay: cell-based or functional assay
[3] = final 0.5% FBS, two days with compound

Insulin-like growth factor 1 receptor (IGF1R), sequence (P08069 31-1367 limits assumed): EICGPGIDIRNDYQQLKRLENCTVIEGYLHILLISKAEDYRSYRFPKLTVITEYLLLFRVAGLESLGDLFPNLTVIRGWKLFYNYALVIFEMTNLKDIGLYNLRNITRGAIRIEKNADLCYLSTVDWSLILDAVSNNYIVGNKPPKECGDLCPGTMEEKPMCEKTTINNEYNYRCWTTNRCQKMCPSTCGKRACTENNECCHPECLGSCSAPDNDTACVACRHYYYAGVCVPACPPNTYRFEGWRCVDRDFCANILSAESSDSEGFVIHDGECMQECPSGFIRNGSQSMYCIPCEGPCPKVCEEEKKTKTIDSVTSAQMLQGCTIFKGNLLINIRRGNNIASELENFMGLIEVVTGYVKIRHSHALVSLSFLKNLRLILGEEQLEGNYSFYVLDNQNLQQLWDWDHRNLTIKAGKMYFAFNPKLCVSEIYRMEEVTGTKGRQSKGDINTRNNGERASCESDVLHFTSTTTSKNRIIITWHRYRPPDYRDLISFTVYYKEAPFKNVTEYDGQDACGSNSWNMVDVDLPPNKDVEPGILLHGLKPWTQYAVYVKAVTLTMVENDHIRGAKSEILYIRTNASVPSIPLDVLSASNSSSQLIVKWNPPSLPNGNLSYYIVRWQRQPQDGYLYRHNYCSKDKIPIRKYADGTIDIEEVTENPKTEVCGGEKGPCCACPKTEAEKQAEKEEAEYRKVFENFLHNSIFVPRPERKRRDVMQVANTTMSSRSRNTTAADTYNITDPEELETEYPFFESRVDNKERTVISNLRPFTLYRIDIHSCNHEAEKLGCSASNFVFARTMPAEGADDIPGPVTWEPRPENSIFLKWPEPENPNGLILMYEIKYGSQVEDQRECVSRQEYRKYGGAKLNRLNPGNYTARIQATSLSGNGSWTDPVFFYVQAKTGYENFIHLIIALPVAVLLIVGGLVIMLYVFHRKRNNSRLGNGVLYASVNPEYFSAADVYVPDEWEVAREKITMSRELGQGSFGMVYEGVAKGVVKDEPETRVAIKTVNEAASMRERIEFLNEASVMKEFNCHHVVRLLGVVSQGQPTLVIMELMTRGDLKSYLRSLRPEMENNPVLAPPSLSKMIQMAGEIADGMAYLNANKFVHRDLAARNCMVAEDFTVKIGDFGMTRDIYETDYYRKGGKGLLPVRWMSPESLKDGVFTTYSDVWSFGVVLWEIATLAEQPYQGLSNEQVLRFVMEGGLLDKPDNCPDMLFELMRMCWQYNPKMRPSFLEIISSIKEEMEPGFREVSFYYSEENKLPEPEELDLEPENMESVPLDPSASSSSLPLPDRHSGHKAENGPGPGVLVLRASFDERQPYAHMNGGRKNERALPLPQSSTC

Row | Molecule | GI50 (µM), MTT assay, MCF-7 cells [2] | TGI (µM), MTT assay, MCF-7 cells [2] | also measured
1 | CCCCCCCCCCCCCCCC(=O)NCCCC[C@@H](NC(=O)[C@@H](CCCNC(=N)N)NC(=O)[C@@H](CC(N)=O)NC(=O)[C@@H](CC(N)=O)NC(=O)[C@@H](CO)NC(=O)[C@@H](CCCNC(=N)N)NC(=O)[C@@H](CC(C)C)NC(=O)CNC(=O)[C@@H](CC(N)=O)NC(=O)CNC(=O)[C@H](NC(=O)[C@@H](CC(C)C)NC(=O)[C@@H](Cc1ccc(O)cc1)NC(C)=O)C(C)C)C(N)=O [Peptide 18, Ac-YLVGNGLRSNNRK-(ε-Pal)] (Ac-[dY][dL][dV]G[dN]G[dL][dR][dS][dN][dN][dR][dK](Palmitoyl)-NH2; C-terminus assumed) | – | – | AKT enzyme activity (AKT kinase): decreased to undetectable levels; TGI [1, 3]: 400 ± 20 nM; growth inhibition / potency in MCF-7 cells (in words) [1]: increased the potency
2 | CCCCCCCCCCCCCCCC(=O)N[C@@H](Cc1c[nH]cn1)C(=O)N[C@@H](CCCNC(=N)N)C(=O)N[C@@H](CCCCN)C(=O)N[C@@H](CCCNC(=N)N)C(=O)N[C@@H](CC(N)=O)C(=O)N[C@@H](CC(N)=O)C(=O)N[C@@H](CO)C(=O)N[C@@H](CCCNC(=N)N)C(=O)N[C@@H](CC(C)C)C(=O)NCC(=O)N[C@@H](CC(N)=O)C(=O)NCC(=O)N[C@H](C(=O)N[C@@H](CC(C)C)C(=O)N[C@@H](Cc1ccc(O)cc1)C(N)=O)C(C)C [Peptide 9, Pal-HRKRNNSRLGNGVLY-NH2] (Palmitoyl-HRKRNNSRLGNGVLY-NH2) | – | – | GI50 [1, 3]: 1650 ± 100 nM; TGI [1, 3]: >5000 nM; growth inhibition / potency in MCF-7 cells (in words) [1]: did not improve the degree of folding or the potency; cell-growth inhibitory properties (breast cancer cell lines): significant cell-growth inhibitory properties
3 | Palmitoyl-HRKRNNSRLGNGVLYASVNPEYFSAA-NH2 (SMILES CCCCCCCCCCCCCCCC(=O)N[C@@H](Cc1c[nH]cn1)C(=O)N[C@@H](CCCNC(=N)N)C(=O)N[C@@H](CCCCN)C(=O)N[C@@H](CCCNC(=N)N)C(=O)N[C@@H](CC(N)=O)C(=O)N[C@@H](CC(N)=O)C(=O)N[C@@H](CO)C(=O)N[C@@H](CCCNC(=N)N)C(=O)N[C@@H](CC(C)C)C(=O)NCC(=O)N[C@@H](CC(N)=O)C(=O)NCC(=O)N[C@H](C(=O)N[C@@H](CC(C)C)C(=O)N[C@@H](Cc1ccc(O)cc1)C(=O)N[C@@H](C)C(=O)N[C@@H](CO)C(=O)N[C@H](C(=O)N[C@@H](CC(N)=O)C(=O)N1CCC[C@H]1C(=O)N[C@@H](CCC(=O)O)C(=O)N[C@@H](Cc1ccc(O)cc1)C(=O)N[C@@H](Cc1ccccc1)C(=O)N[C@@H](CO)C(=O)N[C@@H](C)C(=O)N[C@@H](C)C(N)=O)C(C)C)C(C)C) [peptide 4 (Pal-HRKRNNSRLGNGVLYASVNPEYFSAA-NH2)] | 1 µM | > 5 µM | –
4 | Palmitoyl-RNNSRLGNGVLYAS-NH2 (not fully specified; printed as Pal-RNNSRLGNGVLYAS-NH2) [peptide 34 (Pal-RNNSRLGNGVLYAS-NH2)] | 0.04 µM | > 5 µM | –
5 | Palmitoyl-RNNSRLGNGVL-NH2 (SMILES CCCCCCCCCCCCCCCC(=O)N[C@@H](CCCNC(=N)N)C(=O)N[C@@H](CC(N)=O)C(=O)N[C@@H](CC(N)=O)C(=O)N[C@@H](CO)C(=O)N[C@@H](CCCNC(=N)N)C(=O)N[C@@H](CC(C)C)C(=O)NCC(=O)N[C@@H](CC(N)=O)C(=O)NCC(=O)N[C@H](C(=O)N[C@@H](CC(C)C)C(N)=O)C(C)C) [peptide 30 (Pal-RNNSRLGNGVL-NH2)] | 1.7 µM | 3.7 µM | –
6 | Palmitoyl-RNNSRLGNGVLYA-NH2 (not fully specified; printed as Pal-RNNSRLGNGVLYA-NH2) [peptide 33 (Pal-RNNSRLGNGVLYA-NH2)] | 0.1 µM | > 5 µM | –
7 | Palmitoyl-RNNSRLGNGVLYASV-NH2 (not fully specified; printed as Pal-RNNSRLGNGVLYASV-NH2) [peptide 35 (Pal-RNNSRLGNGVLYASV-NH2)] | 0.05 µM | 2.5 µM | –
